Test results from PMC6736755.

Target: H-2 I-A^d class II MHC molecule (mouse)
Test: radioligand binding

IC50: 2 nM
Substance: OVA323–339 peptide (WT)
